Source: US8658382B2, “Proteins with pteridine glycosyltransferase activity and analysis method using the same” (Inje University Industry-Academic Cooperation Foundation, priority 2008, dated 2014)

Columns and labels:
[1] = BGluT-catalysed glucosylation of tetrahydrobiopterin (establishing reaction conditions); assay type: biochemical
Procedure: Unless otherwise specified, the following standard reaction conditions were used for the determination of tetrahydrobiopterin and its oxidized forms. Reactions were carried out in a final volume of 100 μl, which consisted of 50 mM Tris-HCl (pH 7.5), 10 mM MgCl2, 0.05% ascorbic acid, 500 μM UDP-glucose, 1 μg of BGluT, and an aliquot of pteridines or tissue extracts. The reaction mixture was incubated for 20 minutes at 37° C. and then mixed with 30 μl of acidic iodine solution (2% KIM % I2 in 1 N HCl). After 1 hour in the dark at room temperature, the oxidized mixture was centrifuged. […]
The HPLC system consisted of Gilson 321 pump, Gilson 234 autoinjector, a fluorescence detector (Schimadzu RF-10AXL), and a system software (Gilson Unipoint version 5.11). […] Pteridines were eluted isocratically at a flow rate of 1.2 ml/min and monitored at 350/450 nm (excitation/emission). Pteridine peaks were identified and quantified using authentic pteridines, which were purchased from Dr. B. Schirck's Lab (Jona, Switzerland). […]
The results of FIG. 1 illustrate that a selective and quantitative analysis of tetrahydrobiopterin is possible using BGluT. In order to validate the possibility quantitatively, various studies were carried out to establish a standard reaction condition suitable for analysis of biological samples. […]

[2] = Storage stability of purified recombinant BGluT; assay type: physicochemical; settings: in 20 mM Tris-HCl (pH 7.5), 30% (v/v) glycerol, aliquots at −70° C.
From the text: According to the present inventor's article (Y. K. Choi, Y. K. Hwang, Y. S. Park, Molecular cloning and disruption of a novel gene encoding UDP-glucose:tetrahydrobiopterin alpha-glucosyltransferase gene in Synechococcus sp. PCC 7942. FEBS Lett. 502 (2001) 73-78), the BGluT gene cloned in pET-28a was overexpressed in Escherichia coli strain BL21(DE3). The recombinant BGluT was homogeneously purified with Ni-NTA column (Qiagen). Briefly, the transformed E. coli was induced to overexpress the protein with 0.3 mM isopropyl thiogalactoside (IPTG). After being incubated at 37° C. for 3 hours, the harvested cells were washed with lysis buffer (50 mM sodium phosphate (pH 8.0), 300 mM NaCl, 10 mM imidazole), resuspended in the same buffer, and disrupted by sonication. The crude extract obtained after centrifugation was applied to a column of Ni-NTA gel (Qiagen) and purified according to the product manual. The recombinant BGluT protein was eluted with 250 mM imidazole in the lysis buffer. The purified protein was dialyzed against 20 mM Tris-HCl (pH 7.5), mixed with glycerol to a concentration of 30% (v/v), and stored in aliquots at −70° C. until use. The protein was stable up to 4 months. Protein concentration was determined using Bradford reagent.

B1: BGluT: recombinant protein from a Synechococcus gene with pteridine glucosyltransferase activity (UDP-glucose:tetrahydrobiopterin glucosyltransferase) (protein)
chain: MTAHRFLFVSTPVGPLGSGRGGGVELTLPNLAKALTQRGHQVSVLAPAGSVLPDLPLETVPGTWQSTAQSHGRATPAEIPAESVLARLWDRAHQQQADFDLILNFAYDWLPLYLTPFFKTPVAHLISMGSLSEVMDQAIATSLDRYPGSIAVHSLAQAATFPFGDRCLCIGNALDLAAYGFNPEPEPVLGWVGRIAPEKGLEDAIQAAQQAGLPLRVWGALTEPDYWQRLQQQFGDRAVSYQGFVSTDELQRGLGRCQGLLMTPKWVEAFGNVAIEALACGLPVIAYARGGPLEIIEQGKSGWLVEPDQQAALVNAIGQLSSLDRAYCRAQAEARFSLAAMGQRLEAWLLPLLSRARGF
modifications: Synechococcus PCC7942
amount of BGluT above which the product is not increased any more ([1]; 100 μl reaction mixture, 1 μM tetrahydrobiopterin, 10 minutes, FIG. 2): more than 1 μg | conversion of tetrahydrobiopterin to its glucosylated product ([1]; even in the presence of dihydrobiopterin, FIG. 1): specifically convert only all of tetrahydrobiopterin to its glucosylated product | time the protein was stable [2]: up to 4 months
